Here are results for one substance from US20240270826A1.

In experiment [1] the target is SARS-CoV-2 spike protein S on live virus, Alpha variant (SARS-CoV-2 (Alpha variant)) (UniProt P0DTC2). Put plainly: cell-based or functional assay.
The target in experiment [2] is Human SARS-CoV-2 Delta (B.1.617.2) S (SARS-CoV-2 (Delta variant)) (UniProt P0DTC2). In words: flow cytometry SVNA: VHH-Fc inhibits S binding to ACE2 on Vero E6 cells.
Experiment [3] concerns the target Human SARS-CoV-2 Gamma (P.1) S (SARS-CoV-2 (Gamma variant)) (UniProt P0DTC2). The experiment is described as above.
Experiment [4] has as its target Human SARS-CoV-2 Kappa (B.1.617.1) S (SARS-CoV-2 (Kappa variant)) (UniProt P0DTC2). Described as above.

In experiment [1], VHH-72 VHH-Fc (Fc fusion) gave an LVNA IC50 of 1.86 nM. Also, the IC50 in experiment [2] was determined as 10.5 nM; in experiment [3] it was 3.3 nM; in experiment [4], 8.5 nM.
